Source: US9260517B2, “Human monoclonal antibodies to human nucleolin” (MUSC Foundation for Research Development, priority 2009, dated 2016)

Assays:
[1] = target: T1, cell surface nucleolin on MV4-11 AML cells (Homo sapiens, UniProt P19338); test: Flow cytometry (FACS) binding to MV4-11 cells; settings: 5 μg/ml, 30 min on ice
T1 construct: endogenous in cells; host or cells: MV4-11 cells
Experimental: (§1) FIG. 12. Binding of HuMAbs to cell surface nucleolin and cytotoxicity to MV4-11 leukemia cells. (FIG. 12A) Anti-nucleolin HuMabs or Rituxan^R (5 μg/ml) were incubated with MV4-11 or normal tonsil cells for 30 min on ice, washed, then incubated with APC-labeled anti-human IgG (Miltenyi). Flow cytometry was performed on a FACSCaliber, and median fluorescence intensity (MFI) is shown.
analysis was performed using a Becton Dickinson FACSCalibur instrument at the MUSC Flow Cytometry Facility, according to established methods. Infection efficiency of B cells infected with […] was assessed by measuring fluorescence of Green Fluorescent Protein 24 h post-infection. Antibodies used to characterize human B cells were obtained from BD Biosciences and are specific for human CD20, CD19, CD23, CD27, CD30, CD38, IgD, IgM, and IgG.

[2] = test system: normal tonsil cells; test: Flow cytometry binding to normal tonsil cells; parameters: species or system human; settings: 5 μg/ml, 30 min on ice
Experimental: as §1

T1 sequence (P19338 whole entry): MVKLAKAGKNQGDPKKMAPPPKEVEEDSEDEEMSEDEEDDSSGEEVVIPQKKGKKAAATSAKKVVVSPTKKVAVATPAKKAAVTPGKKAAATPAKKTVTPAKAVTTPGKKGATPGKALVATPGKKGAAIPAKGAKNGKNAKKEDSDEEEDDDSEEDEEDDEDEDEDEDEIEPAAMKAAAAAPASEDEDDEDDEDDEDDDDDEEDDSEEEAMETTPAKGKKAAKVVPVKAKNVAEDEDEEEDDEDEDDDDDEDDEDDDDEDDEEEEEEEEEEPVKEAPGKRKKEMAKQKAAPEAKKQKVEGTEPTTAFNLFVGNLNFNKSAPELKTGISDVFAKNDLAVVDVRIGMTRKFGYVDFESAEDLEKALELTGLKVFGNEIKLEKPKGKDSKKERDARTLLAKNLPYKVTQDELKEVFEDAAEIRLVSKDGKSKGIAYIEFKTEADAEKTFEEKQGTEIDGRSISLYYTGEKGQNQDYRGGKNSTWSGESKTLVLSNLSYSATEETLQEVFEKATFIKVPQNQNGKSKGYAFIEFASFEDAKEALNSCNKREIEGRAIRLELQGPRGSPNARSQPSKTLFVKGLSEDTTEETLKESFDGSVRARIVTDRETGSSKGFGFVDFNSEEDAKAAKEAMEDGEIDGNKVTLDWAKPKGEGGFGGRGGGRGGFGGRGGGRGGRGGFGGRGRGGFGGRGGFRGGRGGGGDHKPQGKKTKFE

rituximab
binding to MV4-11 cells by flow cytometry [1]: not to MV4-11 cells | binding to normal tonsil cells by flow cytometry [2]: bound to normal tonsil cells
